Measured values taken from ChEMBL document CHEMBL2074239, “Characterization of uremic toxin transport by organic anion transporters in the kidney” (Kidney Int, 2004).
Values belong to the molecule of their own block, whether it stands above or below them.

Columns and labels:
[1] = biological target: T1, Organic anion transporter 3 (Rattus norvegicus, UniProt Q9R1U7); assay: TP_TRANSPORTER: inhibition of benzylpenicillin uptake in Oat3-expressing HEK293 cells; type: functional, cell-based
T1 sequence (Q9R1U7 whole entry): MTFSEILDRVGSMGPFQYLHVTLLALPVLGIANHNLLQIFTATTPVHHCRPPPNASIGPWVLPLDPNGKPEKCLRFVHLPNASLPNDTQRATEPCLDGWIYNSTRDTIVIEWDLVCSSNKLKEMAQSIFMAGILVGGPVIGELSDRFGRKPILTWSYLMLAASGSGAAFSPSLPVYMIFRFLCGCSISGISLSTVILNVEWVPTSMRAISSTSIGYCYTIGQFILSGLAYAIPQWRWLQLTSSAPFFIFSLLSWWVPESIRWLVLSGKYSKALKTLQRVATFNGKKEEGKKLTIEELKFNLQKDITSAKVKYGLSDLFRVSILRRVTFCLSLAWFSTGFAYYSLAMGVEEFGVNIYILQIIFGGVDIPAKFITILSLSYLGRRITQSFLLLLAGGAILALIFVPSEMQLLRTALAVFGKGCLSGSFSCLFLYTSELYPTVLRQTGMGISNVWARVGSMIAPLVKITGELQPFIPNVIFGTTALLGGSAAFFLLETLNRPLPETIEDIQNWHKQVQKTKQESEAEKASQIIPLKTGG

[2] = biological target: T2, Organic anion transporter 3 (Homo sapiens, UniProt Q8TCC7); assay: TP_TRANSPORTER: inhibition of benzylpenicillin uptake in OAT3-expressing HEK293 cells; type: functional, cell-based
T2 sequence (Q8TCC7 whole entry): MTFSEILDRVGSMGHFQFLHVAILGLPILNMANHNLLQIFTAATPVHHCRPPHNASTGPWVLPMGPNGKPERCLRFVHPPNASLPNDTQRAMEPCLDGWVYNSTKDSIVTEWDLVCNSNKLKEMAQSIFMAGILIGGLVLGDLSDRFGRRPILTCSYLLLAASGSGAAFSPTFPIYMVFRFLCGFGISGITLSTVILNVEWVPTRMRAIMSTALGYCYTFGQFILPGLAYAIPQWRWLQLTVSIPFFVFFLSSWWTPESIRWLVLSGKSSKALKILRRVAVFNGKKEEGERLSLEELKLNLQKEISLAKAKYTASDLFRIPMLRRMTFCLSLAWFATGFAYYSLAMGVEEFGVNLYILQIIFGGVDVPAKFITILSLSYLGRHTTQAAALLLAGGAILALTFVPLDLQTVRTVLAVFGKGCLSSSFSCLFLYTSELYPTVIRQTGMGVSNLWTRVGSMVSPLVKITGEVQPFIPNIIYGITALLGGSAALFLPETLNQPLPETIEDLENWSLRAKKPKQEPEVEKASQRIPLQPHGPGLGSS

[3] = substrate: CC(=O)Oc1c[nH]c2ccccc12; assay: (§1) TP_TRANSPORTER: uptake in OAT1-expressing HEK293 cell; type: functional, cell-based
[4] = substrate: CCCc1oc(CCC(=O)O)c(C(=O)O)c1C; assay: as §1; type: functional, cell-based
[5] = substrate: O=C(O)CNC(=O)c1ccccc1; assay: cells, lysate or membranes named
[6] = substrate: CCCc1oc(CCC(=O)O)c(C(=O)O)c1C; assay: (§2) TP_TRANSPORTER: uptake in OAT3-expressing HEK293 cells; type: functional, cell-based
[7] = substrate: O=S(=O)(O)Oc1c[nH]c2ccccc12; assay: as §2; type: functional, cell-based
[8] = substrate: CCCc1oc(CCC(=O)O)c(C(=O)O)c1C; assay: (§3) TP_TRANSPORTER: uptake in Oat3-expressing HEK293 cells; type: functional, cell-based
[9] = substrate: O=S(=O)(O)Oc1c[nH]c2ccccc12; assay: as §3; type: functional, cell-based

Ki [1]: 582 µM | Ki [2]: 491 µM
Molecule: CC(=O)Oc1c[nH]c2ccccc12 [INDOLE ACETATE]

Ki [1]: 19 µM | Ki [2]: 31 µM
Molecule: O=C(O)CNC(=O)c1ccccc1 [HIPPURIC ACID]

B1: Solute carrier family 22 member 6 (Homo sapiens) (protein)
chain: MAFNDLLQQVGGVGRFQQIQVTLVVLPLLLMASHNTLQNFTAAIPTHHCRPPADANLSKNGGLEVWLPRDRQGQPESCLRFTSPQWGLPFLNGTEANGTGATEPCTDGWIYDNSTFPSTIVTEWDLVCSHRALRQLAQSLYMVGVLLGAMVFGYLADRLGRRKVLILNYLQTAVSGTCAAFAPNFPIYCAFRLLSGMALAGISLNCMTLNVEWMPIHTRACVGTLIGYVYSLGQFLLAGVAYAVPHWRHLQLLVSAPFFAFFIYSWFFIESARWHSSSGRLDLTLRALQRVARINGKREEGAKLSMEVLRASLQKELTMGKGQASAMELLRCPTLRHLFLCLSMLWFATSFAYYGLVMDLQGFGVSIYLIQVIFGAVDLPAKLVGFLVINSLGRRPAQMAALLLAGICILLNGVIPQDQSIVRTSLAVLGKGCLAASFNCIFLYTGELYPTMIRQTGMGMGSTMARVGSIVSPLVSMTAELYPSMPLFIYGAVPVAASAVTVLLPETLGQPLPDTVQDLESRWAPTQKEAGIYPRKGKQTRQQQEHQKYMVPLQASAQEKNGL
Km [3]: 14 µM | Km [4]: 141 µM

B2: Solute carrier family 22 member 6 (Rattus norvegicus) (protein)
chain: MAFNDLLKQVGGVGRFQLIQVTMVVAPLLLMASHNTLQNFTAAIPPHHCRPPANANLSKDGGLEAWLPLDKQGQPESCLRFTSPQWGPPFYNGTEANGTRVTEPCIDGWVYDNSTFPSTIVTEWNLVCSHRAFRQLAQSLYMVGVLLGAMVFGYLADRLGRRKVLILNYLQTAVSGTCAAYAPNYTVYCVFRLLSGMSLASIAINCMTLNVEWMPIHTRAYVGTLIGYVYSLGQFLLAGIAYAVPHWRHLQLVVSVPFFIAFIYSWFFIESARWYSSSGRLDLTLRALQRVARINGKQEEGAKLSIEVLRTSLQKELTLSKGQASAMELLRCPTLRHLFLCLSMLWFATSFAYYGLVMDLQGFGVSMYLIQVIFGAVDLPAKFVCFLVINSMGRRPAQMASLLLAGICILVNGIIPKSHTIIRTSLAVLGKGCLASSFNCIFLYTGELYPTVIRQTGLGMGSTMARVGSIVSPLVSMTAEFYPSMPLFIFGAVPVVASAVTALLPETLGQPLPDTVQDLKSRSRGKQNQQQQEQQKQMMPLQASTQEKNGL
Km [5]: 28 µM

B3: Organic anion transporter 3 (Homo sapiens) (protein)
chain: MTFSEILDRVGSMGHFQFLHVAILGLPILNMANHNLLQIFTAATPVHHCRPPHNASTGPWVLPMGPNGKPERCLRFVHPPNASLPNDTQRAMEPCLDGWVYNSTKDSIVTEWDLVCNSNKLKEMAQSIFMAGILIGGLVLGDLSDRFGRRPILTCSYLLLAASGSGAAFSPTFPIYMVFRFLCGFGISGITLSTVILNVEWVPTRMRAIMSTALGYCYTFGQFILPGLAYAIPQWRWLQLTVSIPFFVFFLSSWWTPESIRWLVLSGKSSKALKILRRVAVFNGKKEEGERLSLEELKLNLQKEISLAKAKYTASDLFRIPMLRRMTFCLSLAWFATGFAYYSLAMGVEEFGVNLYILQIIFGGVDVPAKFITILSLSYLGRHTTQAAALLLAGGAILALTFVPLDLQTVRTVLAVFGKGCLSSSFSCLFLYTSELYPTVIRQTGMGVSNLWTRVGSMVSPLVKITGEVQPFIPNIIYGITALLGGSAALFLPETLNQPLPETIEDLENWSLRAKKPKQEPEVEKASQRIPLQPHGPGLGSS
Km [6]: 27 µM | Km [7]: 263 µM

B4: Organic anion transporter 3 (Rattus norvegicus) (protein)
chain: MTFSEILDRVGSMGPFQYLHVTLLALPVLGIANHNLLQIFTATTPVHHCRPPPNASIGPWVLPLDPNGKPEKCLRFVHLPNASLPNDTQRATEPCLDGWIYNSTRDTIVIEWDLVCSSNKLKEMAQSIFMAGILVGGPVIGELSDRFGRKPILTWSYLMLAASGSGAAFSPSLPVYMIFRFLCGCSISGISLSTVILNVEWVPTSMRAISSTSIGYCYTIGQFILSGLAYAIPQWRWLQLTSSAPFFIFSLLSWWVPESIRWLVLSGKYSKALKTLQRVATFNGKKEEGKKLTIEELKFNLQKDITSAKVKYGLSDLFRVSILRRVTFCLSLAWFSTGFAYYSLAMGVEEFGVNIYILQIIFGGVDIPAKFITILSLSYLGRRITQSFLLLLAGGAILALIFVPSEMQLLRTALAVFGKGCLSGSFSCLFLYTSELYPTVLRQTGMGISNVWARVGSMIAPLVKITGELQPFIPNVIFGTTALLGGSAAFFLLETLNRPLPETIEDIQNWHKQVQKTKQESEAEKASQIIPLKTGG
Km [8]: 11 µM | Km [9]: 174 µM
